{"source": "patent US20230220104A1", "about": "(BRIGHTPATH BIOTHERAPEUTICS, published 2023)", "binders": {"B1": {"name": "002_1_c antibody (antibody, V domains shown)", "VH": "QVQMKQSGPELVKPGASVKIPCKASGYTFTDCNMDWVKQSHGESLEWIGDINPNNGGTIYNQKFKGKVTLTIDKSSSTAYMELRSLTSEDTAVYYCARTNWDYAMDYWGQGTSVTVSS", "VL": "DIQMTQSPSSMYASLGERVTITCKASQDINSNLSWFQQKPGKSPKTLIYRANRLIDGVPSRFSGSGSGQDYSLTISSLEYEDMGIYYCLQYDVFPRTFGGGTKLELK"}, "B2": {"name": "002_4_c antibody (antibody, V domains shown)", "VH": "B1 VH with C32S", "VL": "B1 VL"}, "B3": {"name": "002_2_c antibody (antibody, V domains shown)", "VH": "B1 VH", "VL": "B1 VL with N32D"}, "B4": {"name": "002_6_c antibody (antibody, V domains shown)", "VH": "B1 VH with C32S", "VL": "B1 VL with N32Q"}, "B5": {"name": "002_5_c antibody (antibody, V domains shown)", "VH": "B1 VH with C32S", "VL": "B1 VL with N32D"}, "B6": {"name": "002_3_c antibody (antibody, V domains shown)", "VH": "B1 VH", "VL": "B1 VL with N32Q"}, "B7": {"name": "002_6_h1 (antibody, V domains shown)", "VH": "QVQLVQSGAEVKKPGASVKVSCKASGYTFTDSNMDWVRQAPGQRLEWMGDINPNNGGTIYNQKFKGRVTITRDTSASTAYMELSSLRSEDTAVYYCARTNWDYAMDYWGQGTLVTVSS", "VL": "DIQMTQSPSSLSASVGDRVTITCKASQDINSQLSWYQQKPGKAPKLLIYRANRLIDGVPSRFSGSGSGTDFTLTISSLQPEDFATYYCQQYDVFPRTFGQGTKLEIK", "notes": "Humanized antibody of 002_6_c; also called humanized antibody 002_6_h1"}, "B8": {"name": "002_6_h3 (antibody, V domains shown)", "VH": "QVQLLQSAAEVRKPGASVKVSCKASGYTFTDSNMDWVRQAPGQGLEWMGDINPNNGGTIYNQKFKGRVTMTTDTSRRTAYMELRSLRSDDTAVYYCARTNWDYAMDYWGQGTTVTVSS", "VL": "B7 VL with S10F, D70E, Q100G", "notes": "Humanized antibody of 002_6_c; also called humanized antibody 002_6_h3"}, "B9": {"name": "002_6_h6 (antibody, V domains shown)", "VH": "B7 VH with L4M, V5K, Q6E, R44G, I70M, R72I, A76T, A79V", "VL": "B7 VL with M4V, S10F, L46T, P80Y, F83M, Q89L, Q100G, L104V", "notes": "Humanized antibody of 002_6_c; also called humanized antibody 002_6_h6"}, "B10": {"name": "002_6_h5 (antibody, V domains shown)", "VH": "B7 VH with V5Q, Q6E, R44G, I70M, A76T, A79V", "VL": "B7 VL with M4V, S10F, D70E, Q100G, L104V", "notes": "Humanized antibody of 002_6_c; also called humanized antibody 002_6_h5"}, "B11": {"name": "007_m antibody (antibody, V domains shown)", "VH": "QVQLQQPGAELVRPGASVKLSCKASGYTFTSYWMNWVKQRPEQGLEWIGKIDPYDSETHYNQKFKDKAILTVDKSSSTAFMQLSSLTSEDSAVYYCARIRYGTFDYWGQGTTLTVSS", "VL": "B1 VL with Q3V, S31N, N32Y, R53I, I55V, R61G, V93E, R96Y, K103R, L106I"}, "B12": {"name": "006_m antibody (antibody, V domains shown)", "VH": "QVQLQQPGAELVKPGVSVKLSCKASGYTFTSYWMHWVKQRPGQGPEWIGEINPSNARTNYNENFKSKATLTVDKSSTTAYMHFSRLTSEDSAVYYCARRGTSGNYFDFWGQGTTVTVSS", "VL": "B1 VL with S31T, N32Y, I55V, Q69E, V93E, R96Y, K103R, L106I"}, "B13": {"name": "008_m antibody (antibody, V domains shown)", "VH": "QVQLKQSGAELVKPGASVKLSCKASGYTFTSYWMHWVKQRPGQGPEWIGEINPSNGRTNYNEKFKNRATLTVDKSSSTAYMQLSRLTSEDSAVYYCARRGTSGNYFDYWGQGTTLTVSS", "VL": "B1 VL with S31T, N32Y, I55V, Q69E, V93E, R96Y, K103R, L106I"}, "B14": {"name": "003_m antibody (antibody, V domains shown)", "VH": "DVKLVESGGGLVQPGGSRKLSCAASGFTFSSFGMHWVRQAPEKGLEWVAYISSGSRTIYYADTVRGRFTISRDNSKNTLFLQLTSLRSEDTAIYYCASDFGSSSPNYFDYWGQGTTVTVSS", "VL": "not shown"}, "B15": {"name": "004_m antibody (antibody, V domains shown)", "VH": "QVQLQQPGAELVRPGTSVKLSCKASGYTFTGYWMNWLKQRPDQGLEWIGRIDPYDSETHYSQKFKDKAILTVHKSSSTAYIQLNSLTSEDSAVYYCTRSSPITTAPFDYWGRGTTLTVSS", "VL": "not shown"}, "B16": {"name": "008_h4 antibody (antibody, V domains shown)", "VH": "QVQLVQSGAEVKKPGASVKVSCKASGYTFTSYWMHWVRQRPGQGLEWMGEINPSNGRTNYNEKFKNRATITADKSSSTAYMELSSLRSEDTAVYYCARRGTSGNYFDYWGQGTLVTVSS", "VL": "DIQMTQSPSSLSASVGDRVTITCKASQDINTYLSWFQQKPGKAPKTLIYRANRLVDGVPSRFSGSGYGTDFTLTISSLQYEDMATYYCLQYDEFPYTFGGGTKVEIK", "notes": "Humanized antibody based on 008_m"}, "B17": {"name": "004_h3 antibody (antibody, V domains shown)", "VH": "EVQLVQSGAEVKKPGESLKISCKASGYTFTGYWMNWLRQMPDKGLEWMGRIDPYDSETHYSQKFKDKVTITAHKSSSTAYLQWSSLKASDSAIYYCARSSPITTAPFDYWGQGTTVTVSS", "VL": "DIVMTQSPASLAVSLGERATISCRASESVDYYGFSFMNWYQQKPGQPPKLLIYAASTQGSGVPDRFSGSGSGTDFTLTISSLQAEDVAVYYCQQSKEVPYTFGGGTKVEIK", "notes": "Humanized antibody based on 004_m"}, "B18": {"name": "002_6_h2 (antibody, V domains shown)", "VH": "B7 VH with L4M, V5K, R72I", "VL": "B7 VL with L11M, L46T, P80Y, F83M, Q89L"}}, "note": "Substitutions are numbered along the chain they refer to."}
{"target": "T1, human CD73 on cells (H322, MDA-MB-231, HT-144, T cells, CD73-transfected HEK293T) (human, UniProt P21589 27-549)", "T1 sequence (looked up)": "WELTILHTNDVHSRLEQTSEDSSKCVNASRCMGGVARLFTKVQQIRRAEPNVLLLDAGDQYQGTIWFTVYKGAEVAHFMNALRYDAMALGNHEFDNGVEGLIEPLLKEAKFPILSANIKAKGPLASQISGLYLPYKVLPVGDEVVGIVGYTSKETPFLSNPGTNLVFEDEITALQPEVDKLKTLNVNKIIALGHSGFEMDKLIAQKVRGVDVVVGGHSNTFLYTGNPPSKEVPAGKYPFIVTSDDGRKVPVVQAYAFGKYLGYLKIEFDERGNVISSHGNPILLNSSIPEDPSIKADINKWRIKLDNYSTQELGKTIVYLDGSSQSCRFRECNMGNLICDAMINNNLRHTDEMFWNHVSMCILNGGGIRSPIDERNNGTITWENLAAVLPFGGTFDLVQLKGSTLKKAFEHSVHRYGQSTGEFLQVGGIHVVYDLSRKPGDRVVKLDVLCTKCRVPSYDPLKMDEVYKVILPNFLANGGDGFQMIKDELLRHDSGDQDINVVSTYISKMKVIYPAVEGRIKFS", "test": "cell-based or functional assay", "units": {"IC50 of AMP degradation suppressive function, H322 cells": "µg/mL"}}
{"binder": "B1", "IC50 of AMP degradation suppressive function, H322 cells": 0.042}
{"binder": "B2", "IC50 of AMP degradation suppressive function, H322 cells": 0.038}
{"binder": "B3", "IC50 of AMP degradation suppressive function, H322 cells": 0.077}
{"binder": "B4", "IC50 of AMP degradation suppressive function, H322 cells": 0.042}
{"binder": "B5", "IC50 of AMP degradation suppressive function, H322 cells": 0.066}
{"binder": "B6", "IC50 of AMP degradation suppressive function, H322 cells": 0.039}
{"target": "T1, human CD73 on cells (H322, MDA-MB-231, …)", "test": "flow cytometry on H322 cells (endogenous CD73), PE channel", "description": "Analysis of the binding activity of each of the obtained humanized antibodies 002_6_h1 to 002_6_h8 to target expressing cells was carried out by FACS analysis using endogeneously CD73 expressing cells (human lung cancer cell line H322)."}
{"binder": "B7", "binding result": "binds"}
{"binder": "B8", "binding result": "binds"}
{"binder": "B9", "binding result": "binds"}
{"binder": "B10", "binding result": "binds"}
{"target": "T1, human CD73 on cells (H322, MDA-MB-231, …)", "test": "cell-based or functional assay", "remark": "another data set of the same source", "units": {"IC50 of AMP degradation suppressive function (cell line of Table 7 not stated; H322 in FIG. 12)": "µg/mL"}}
{"binder": "B11", "IC50 of AMP degradation suppressive function (cell line of Table 7 not stated; H322 in FIG. 12)": 0.012}
{"binder": "B12", "IC50 of AMP degradation suppressive function (cell line of Table 7 not stated; H322 in FIG. 12)": 0.008}
{"binder": "B13", "IC50 of AMP degradation suppressive function (cell line of Table 7 not stated; H322 in FIG. 12)": 0.006}
{"binder": "B14", "IC50 of AMP degradation suppressive function (cell line of Table 7 not stated; H322 in FIG. 12)": 0.088}
{"binder": "B15", "IC50 of AMP degradation suppressive function (cell line of Table 7 not stated; H322 in FIG. 12)": 0.013}
{"target": "T1, human CD73 on cells (H322, MDA-MB-231, …)", "test": "cell-based or functional assay", "remark": "another data set of the same source", "units": {"IC50 of AMP degradation suppressive function, MDA-MB-231 cells": "µg/mL"}}
{"binder": "B4", "IC50 of AMP degradation suppressive function, MDA-MB-231 cells": 0.023}
{"target": "T1, human CD73 on cells (H322, MDA-MB-231, …)", "test": "flow cytometry, HEK293T cells forcibly expressing human CD73 (293T_hCD73) against untransfected 293T cells, APC channel"}
{"binder": "B16", "binding result": "binds"}
{"binder": "B17", "binding result": "binds"}
{"target": "T1, human CD73 on cells (H322, MDA-MB-231, …)", "test": "cell-based or functional assay", "remark": "another data set of the same source", "units": {"IC50 of AMP degradation suppressive function, H322 cells": "µg/mL"}}
{"binder": "B4", "IC50 of AMP degradation suppressive function, H322 cells": 0.04}
{"binder": "B18", "IC50 of AMP degradation suppressive function, H322 cells": 0.236}
{"target": "T1, human CD73 on cells (H322, MDA-MB-231, …)", "test": "cell-based or functional assay", "remark": "another data set of the same source", "units": {"IC50 of AMP degradation suppressive function, MDA-MB-231 cells": "µg/mL"}}
{"binder": "B11", "IC50 of AMP degradation suppressive function, MDA-MB-231 cells": 0.041}
{"binder": "B12", "IC50 of AMP degradation suppressive function, MDA-MB-231 cells": 0.032}
{"binder": "B13", "IC50 of AMP degradation suppressive function, MDA-MB-231 cells": 0.031}
{"binder": "B4", "IC50 of AMP degradation suppressive function, MDA-MB-231 cells": 0.04}
{"binder": "B15", "IC50 of AMP degradation suppressive function, MDA-MB-231 cells": 0.032}
